76 sequences from the supplement of paper PMC7877785 can be followed below.

± gives the uncertainty stated by the source.

The series can be described thus: self-splicing fitness, log relative to wild type (ln ratio); higher = more splicing; Tetrahymena group I intron in knt gene, E. coli kanamycin selection, DiMSum; sequences stand for … in CUCUCU…GGAGGGAAAAGUUAUCAGGCAUGCACCUGGUAGCUAGUCUUUAAACCAAUAGAUUGCAUCGGUUUAAAAGGCAAGACCGUCAAAUUGCGGGAAAGGGGUCAACAGCCGUUCAGUACCAAGUCUCAGGGGAAACUUUGAGAUGGCCUUGCAAAGGGUAUGGUAAUAAGCUGACGGACAUGGUCCUAACCACGCAGCCAAGUCCUAAGUCAACAGAUCUUCUGUUGAUAUGGAUGCAGUUCACAGACUAAAUGUCGGUCGGGGAAGAUGUAUUCUUCUCAUAAGAUAUAGUCGGACCUCUCCUUAAUGGGAGCUAGCGGAUGAAGUGAUGCAACACUGGAGCCGCUGGGAACUAAUUUGUAUGCGAAAGUAUAUUGAUUAGUUUUGGAGUACUCGUGGUCG
The method, boiled down: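 Pooled colonies went to amplicon sequencing on an Illumina HiSeq 2500 after six replicate transformations. The plates were LB agar with 100 μg/mL carbenicillin, 50 μM IPTG and 0.2% rhamnose, with or without 25 μg/mL kanamycin, incubated overnight at 37°C or 30°C. The E. coli BL21(DE3) library had all eight P1ex-region intron nucleotides randomised, the intron placed in the knt kanamycin-resistance gene on pET-22b(+). DiMSum fitness is the error-weighted combination of replicate fold changes, kanamycin against none, normalised to wild type.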

For AAUCAGCAAUAUUACGAUUC, the “self-splicing fitness (ln)” value is, setting by setting: (30 °C) -2.99 ± 0.2; (37 °C) -3.73 ± 0.39.

Turning to AAUCAGCAAUAUUACGCAAU, the “self-splicing fitness (ln)” value (30 °C) is -0.895 ± 0.067 and the “self-splicing fitness (ln)” value (37 °C) was -0.0563 ± 0.093. On the same counts, the results for AAUCAGCAAUAUUACGCACU are -0.299 ± 0.077 and 0.326 ± 0.093. The matching figures for AAUCAGCAAUAUUACGCCAA: -1.61 ± 0.14 and -0.855 ± 0.15. The matching figures for AAUCAGCAAUAUUACGCGAA: -0.0302 ± 0.071 and 0.278 ± 0.098. With AAUCAGCAAUAUUACGCGUA, the “self-splicing fitness (ln)” value was -0.281 ± 0.068 (30 °C) and 0.0946 ± 0.082 (37 °C).

As for AAUCAGCAAUAUUACGCUAC, the “self-splicing fitness (ln)” value by setting is: (30 °C) -2.83 ± 0.23; (37 °C) -2.22 ± 0.27. As to AAUCAGCAAUAUUACGGACA, the “self-splicing fitness (ln)” value is, setting by setting: (30 °C) -0.225 ± 0.077; (37 °C) -0.145 ± 0.091. The matching figures for AAUCAGCAAUAUUACGGAGG: -1.01 ± 0.084 and -1.18 ± 0.1. The matching figures for AAUCAGCAAUAUUACGGCAU: -0.109 ± 0.045 and 0.27 ± 0.059. On the same counts, the results for AAUCAGCAAUAUUACGGUUC are -2.32 ± 0.11 and -1.91 ± 0.17. AAUCAGCAAUAUUACGUCCG: the “self-splicing fitness (ln)” value reads like this: (30 °C) -1.59 ± 0.085; (37 °C) -0.00732 ± 0.11. Turning to AAUCAGCAAUAUUACGUGGG, the “self-splicing fitness (ln)” value is, setting by setting: (30 °C) -2.12 ± 0.11; (37 °C) -1.09 ± 0.12.

For the sequence AAUCAGCAAUAUUACGUGUC, the “self-splicing fitness (ln)” value (30 °C) was -0.924 ± 0.053 and the “self-splicing fitness (ln)” value (37 °C) was -0.319 ± 0.069. The matching figures for AAUCAGCAAUAUUACGUGUU: -0.901 ± 0.056 and 0.209 ± 0.064. Regarding AAUGAGCAAUAUUACGAAAA, the “self-splicing fitness (ln)” value runs as follows: (30 °C) -3.58 ± 0.4; (37 °C) -2.1 ± 0.27. As for AAUGAGCAAUAUUACGACUC, the “self-splicing fitness (ln)” value is, setting by setting: (30 °C) -1.05 ± 0.13; (37 °C) -0.904 ± 0.15. The matching figures for AAUGAGCAAUAUUACGAGGG: -4.5 ± 0.29 and -1.98 ± 0.17. On to AAUGAGCAAUAUUACGAGUC, for which the “self-splicing fitness (ln)” value runs as follows: (30 °C) -4.32 ± 0.46; (37 °C) -3.08 ± 0.47. On to AAUGAGCAAUAUUACGAUUU, for which the “self-splicing fitness (ln)” value is -1.24 ± 0.095 (30 °C) and -0.73 ± 0.1 (37 °C). For AAUGAGCAAUAUUACGCCAG, the “self-splicing fitness (ln)” value was -3.99 ± 0.3 (30 °C) and -2.87 ± 0.47 (37 °C). Take AAUGAGCAAUAUUACGCCGC: the “self-splicing fitness (ln)” value (37 °C) is -1.7 ± 0.42.

In the case of AAUGAGCAAUAUUACGCGCU, for the setting “37 °C”, the “self-splicing fitness (ln)” value was -1.72 ± 0.37. On to AAUGAGCAAUAUUACGCUAU, for which the “self-splicing fitness (ln)” value was -2.84 ± 0.28 (30 °C) and -1 ± 0.16 (37 °C). On to AAUGAGCAAUAUUACGGAGC, for which the “self-splicing fitness (ln)” value runs as follows: (30 °C) -3.43 ± 0.25; (37 °C) -1.03 ± 0.44. As for AAUGAGCAAUAUUACGGAUG, the “self-splicing fitness (ln)” value is, setting by setting: (30 °C) -3.35 ± 0.17; (37 °C) -2.23 ± 0.22.

With AAUGAGCAAUAUUACGGUAG, the “self-splicing fitness (ln)” value was -4.54 ± 0.32 (30 °C) and -3.47 ± 0.24 (37 °C).

On to AAUGAGCAAUAUUACGGUGG, for which the “self-splicing fitness (ln)” value is -3.48 ± 0.21 (30 °C) and -1.89 ± 0.24 (37 °C). Regarding AAUGAGCAAUAUUACGUGGU, the “self-splicing fitness (ln)” value runs as follows: (30 °C) -2.41 ± 0.11; (37 °C) -3.49 ± 0.23. On to AAUGAGCAAUAUUACGUGUA, for which the “self-splicing fitness (ln)” value (30 °C) is -3.35 ± 0.23 and the “self-splicing fitness (ln)” value (37 °C) was -2.56 ± 0.21.

In the case of AAUGAGCAAUAUUACGUUCG, the “self-splicing fitness (ln)” value is -1.74 ± 0.11 (30 °C) and -0.765 ± 0.12 (37 °C).

As for AAUUAGCAAUAUUACGAAAG, the “self-splicing fitness (ln)” value (30 °C) is -3.12 ± 0.19 and the “self-splicing fitness (ln)” value (37 °C) is -1.51 ± 0.18.

Take AAUUAGCAAUAUUACGAACA: the “self-splicing fitness (ln)” value (30 °C) was -0.672 ± 0.16 and the “self-splicing fitness (ln)” value (37 °C) was -0.784 ± 0.18. As to AAUUAGCAAUAUUACGACAA, the “self-splicing fitness (ln)” value (30 °C) is -1.79 ± 0.21 and the “self-splicing fitness (ln)” value (37 °C) is 0.209 ± 0.24. With AAUUAGCAAUAUUACGACAC, the “self-splicing fitness (ln)” value (30 °C) was -0.631 ± 0.11 and the “self-splicing fitness (ln)” value (37 °C) was -0.0896 ± 0.14.

On to AAUUAGCAAUAUUACGACCC, for which the “self-splicing fitness (ln)” value (37 °C) came out at 0.136 ± 0.36.

In the case of AAUUAGCAAUAUUACGACGU, the “self-splicing fitness (ln)” value (30 °C) came to 0.421 ± 0.095 and the “self-splicing fitness (ln)” value (37 °C) was -0.3 ± 0.075.

Take AAUUAGCAAUAUUACGAGGG: the “self-splicing fitness (ln)” value reads like this: (30 °C) -3.23 ± 0.23; (37 °C) -2.93 ± 0.3. AAUUAGCAAUAUUACGAGGU: the “self-splicing fitness (ln)” value by setting is: (30 °C) -3.26 ± 0.2; (37 °C) -3.02 ± 0.24. Turning to AAUUAGCAAUAUUACGCAAA, the “self-splicing fitness (ln)” value (30 °C) is -1.96 ± 0.18 and the “self-splicing fitness (ln)” value (37 °C) stood at 0.00784 ± 0.17. For the sequence AAUUAGCAAUAUUACGCGCC, the “self-splicing fitness (ln)” value is, setting by setting: (30 °C) -0.89 ± 0.23; (37 °C) -0.821 ± 0.34. The matching figures for AAUUAGCAAUAUUACGGAAU: -2.33 ± 0.27 and -0.461 ± 0.18. On the same counts, the results for AAUUAGCAAUAUUACGGACA are -0.45 ± 0.19 and -1.28 ± 0.18. For AAUUAGCAAUAUUACGGCCC, the “self-splicing fitness (ln)” value is, setting by setting: (30 °C) -0.766 ± 0.18; (37 °C) -0.626 ± 0.29. The matching figures for AAUUAGCAAUAUUACGGCCU: -0.324 ± 0.097 and 0.38 ± 0.16.

In the case of AAUUAGCAAUAUUACGGCGA, the “self-splicing fitness (ln)” value was -0.312 ± 0.1 (30 °C) and 0.113 ± 0.1 (37 °C). On the same counts, the results for AAUUAGCAAUAUUACGGGAA are -1.88 ± 0.32 and -1.88 ± 0.3. As to AAUUAGCAAUAUUACGGGAC, the “self-splicing fitness (ln)” value (37 °C) is -0.571 ± 0.23. With AAUUAGCAAUAUUACGGGUU, the “self-splicing fitness (ln)” value reads like this: (30 °C) -1.4 ± 0.12; (37 °C) -0.955 ± 0.12. On the same counts, the results for AAUUAGCAAUAUUACGGUGU are -2.48 ± 0.091 and -1.32 ± 0.098. On the same counts, the results for AAUUAGCAAUAUUACGUCGG are -2.72 ± 0.19 and -1.66 ± 0.21. The matching figures for AAUUAGCAAUAUUACGUGAC: -2.05 ± 0.21 and -2.73 ± 0.23.

For the sequence ACAAAGCAAUAUUACGAACA, the “self-splicing fitness (ln)” value is, setting by setting: (30 °C) -2.3 ± 0.12; (37 °C) -0.578 ± 0.1. Turning to ACAAAGCAAUAUUACGAACG, the “self-splicing fitness (ln)” value is, setting by setting: (30 °C) -1.1 ± 0.084; (37 °C) 0.144 ± 0.093.

For ACAAAGCAAUAUUACGAAGC, the “self-splicing fitness (ln)” value runs as follows: (30 °C) -3.71 ± 0.22; (37 °C) -0.444 ± 0.15. For the sequence ACAAAGCAAUAUUACGAAUA, the “self-splicing fitness (ln)” value runs as follows: (30 °C) -3.62 ± 0.29; (37 °C) -1.95 ± 0.17. Consider ACAAAGCAAUAUUACGAGAU, for which the “self-splicing fitness (ln)” value is, setting by setting: (30 °C) -4 ± 0.19; (37 °C) -1.55 ± 0.097. Turning to ACAAAGCAAUAUUACGAGCC, the “self-splicing fitness (ln)” value (37 °C) was -1.97 ± 0.25. Take ACAAAGCAAUAUUACGAUUA: the “self-splicing fitness (ln)” value runs as follows: (30 °C) -1.37 ± 0.11; (37 °C) -0.593 ± 0.11.

For ACAAAGCAAUAUUACGAUUU, the “self-splicing fitness (ln)” value reads like this: (30 °C) -0.651 ± 0.066; (37 °C) -0.399 ± 0.078. ACAAAGCAAUAUUACGCACA: the “self-splicing fitness (ln)” value is, setting by setting: (30 °C) -0.593 ± 0.083; (37 °C) -0.0238 ± 0.099.

ACAAAGCAAUAUUACGCGAG: the “self-splicing fitness (ln)” value (30 °C) was -1.33 ± 0.06 and the “self-splicing fitness (ln)” value (37 °C) was -0.621 ± 0.072. The matching figures for ACAAAGCAAUAUUACGCGCC: -0.241 ± 0.083 and -0.055 ± 0.1. On the same counts, the results for ACAAAGCAAUAUUACGCGGA are -1.7 ± 0.078 and -0.866 ± 0.072. On the same counts, the results for ACAAAGCAAUAUUACGCUUA are -2.37 ± 0.12 and -1.71 ± 0.13. On to ACAAAGCAAUAUUACGGAUG, for which the “self-splicing fitness (ln)” value is, setting by setting: (30 °C) -1.59 ± 0.087; (37 °C) -1.08 ± 0.1. As for ACAAAGCAAUAUUACGGCGA, the “self-splicing fitness (ln)” value was -0.177 ± 0.072 (30 °C) and 0.19 ± 0.094 (37 °C).

For ACAAAGCAAUAUUACGGGAA, the “self-splicing fitness (ln)” value (30 °C) was -2.44 ± 0.18 and the “self-splicing fitness (ln)” value (37 °C) was -2.48 ± 0.17. On the same counts, the results for ACAAAGCAAUAUUACGGUCU are -0.435 ± 0.056 and 0.237 ± 0.079. Turning to ACAAAGCAAUAUUACGGUGG, the “self-splicing fitness (ln)” value is, setting by setting: (30 °C) -3.64 ± 0.11; (37 °C) -2.07 ± 0.12. The matching figures for ACAAAGCAAUAUUACGGUUG: -2.44 ± 0.07 and -1.89 ± 0.09. With ACAAAGCAAUAUUACGUAAC, the “self-splicing fitness (ln)” value is, setting by setting: (30 °C) -3.21 ± 0.21; (37 °C) -1.67 ± 0.14. On the same counts, the results for ACAAAGCAAUAUUACGUCCA are -1.62 ± 0.097 and -0.403 ± 0.1. The matching figures for ACAAAGCAAUAUUACGUCUG: -1.1 ± 0.056 and -0.244 ± 0.074. The matching figures for ACAAAGCAAUAUUACGUGAA: -1.51 ± 0.074 and -1.5 ± 0.083. As to ACAAAGCAAUAUUACGUGCG, the “self-splicing fitness (ln)” value reads like this: (30 °C) -1.07 ± 0.066; (37 °C) -0.382 ± 0.076.
